Here are results for 19 sequences from the DeepSol protein solubility set.

The data set in a line: soluble on expression in E. coli; label from the status in PepcDB or PDB records.
Take “MAELQMLLEEEIPGGRRALFDSYTNLERVADYCENNYIQSADKQRALEETKAYTTQSLASVAYLINTLANNVLQMLDIQASQLRRMESSINHISQTVDIHKEKVARREIGILTTNKNTSRTHKIIAPANLERPVRYIRKPIDYTILDDIGHGVKVSTQNMKMGGLPRTTPPTQKPPSPPMSGKGTLGRHSPYRTLEPVRPPVVPNDYVPSPTRNMAPSQQSPVRTASVNQRNRTYSSSGSSGGSHPSSRSSSRENSGSGSVGVPIAVPTPSPPSVFPGHPVQFYSMNRPASRHTPPTIGGSLPYRRPPSITSQTSLQNQMNGGPFYSQNPVSLAPPPPSILQVTPQLPLMGFVARVQENISDTPPPPPPVEEPVFDESPPPPPPPEDYEEEEAAVVEYSDPYAEEDPPWAPRSYLEKVVAIYDYTKDKEDELSFQEGAIIYVIKKNDDGWYEGVMNGVTGLFPGNYVESIMHYSE”: the “soluble on expression in E. coli” value was “soluble”.

For “MTLMIDENFKKQLAQRRERVEDLFYFENSKEIGRGTYGLVYKAVPKKQNGQFPNKEYALKMIEGQGFSMSACREIALFRELRHPNLICLQRVFLTNEKKVWLLLDYAEHDLWHVIKHHRTAKSKKVPIMVPRNMVKNILFQILSGMHYLHSNWVLHRDLKPANILLMGDGPPDMRGRVKIADLGFSRIYANPLKPMAELDPVVVTFWYRAPELLLGAKHYTKAIDVWAIGCIFAELLTAEPLFFCKEEDIKAQNPYHYDQVKRIFHLLGYPSDADWPDMKKMPDHQRLLSDARNEGTPIQTFPNSLHRYFDKWKINSQSSPYRLLVKLLTVDPTKRVSCEEAMNDIYFRKMERPPRETDDVFNKYPIPYAKKEQQMTVAPDQAQQQHQQQQVQMQQQPQMGQQQMMGQPQMVQPQMGQPPMGGAHPGVVAPDGHPHQMMQQQQHPQQHHMQYQGMHDPMQGGMDEGPQAKMMRMGNVPVGRYAPMPPPYGAPQDYHPQQGPPMVQMMQQPGPSGYYPQRPGQPTGAVPGPGPQGYMNPQMGMQMGMRAPGVPPQGYMPGRGMAPPQMGQQQPGPNQQQQQQWQQQYHR”, the “soluble on expression in E. coli” value is recorded as “not soluble”.

With “GPGSMQQSLIPGHNNNRHLTYDEVENNIGGLPVTDNRIQDLFDSLDVDHSGTVSVEVVKKFYMGLEHYGVDLSDKELDEMVRKYAATHDESLSYEEFACFVLSLAQW”, the “soluble on expression in E. coli” value was “soluble”.

In the case of “MPKNRGVLDAITRSVIDGSDQESSSSFNSDKEYAAVTKGLSSSRVQKKSSLRQMKSKVKELQSLVNHYRENEAALVSSAKLLSGEIIGYEIKMASLHGKMKSILDENNALKETHKSSAEKRIELVRLPSSKEERNYDEYTLLVNLKKEICAKLQDYKNVQNTVNTKLDEIHTFHEKYYEGLELSLDSKVFDAESSKELAKVRRELNNVRKNSEIKVNNLKMQLLQATKSLEHLKKQAKAKDDYLKCIPELVDKANLTMLSYKKSIANQRETIEALQAELSQQSETKGQIETETQNQVQIPTNVTLVDPFEENNPEDLFAIQEQELQDLRLHKKMADERSRTTHLHLERKNNTIKLLQSYVQSLIQRLPPAQRKHHLGIFQKLGSEKSCPLAPAVASTYAPLLLLSQHSNHQEIDNTPQRLLLAAPDGQSYSEKSTTLNLDYSSRKSYLSRLQPPHIANLKSLTLKTLPRVPTDSPQLPSKDKSQETAKKDDRPKLVANEPVTLDTSTPPVAQSLADSKHCSGLHK”, the “soluble on expression in E. coli” value is recorded as “not soluble”.

As for “MSLNNVIFSQKLYDTAQMIVDGCMGDADPACQTACPMHTDVKQYVRMAGEGNFQGALDLIRSKLFLPQTLGRICAHPCEASCRRNTEFGQPISVAGIKRFVAEKMDNQDHWDLNIAPLTNKHIAIVGAGPAGAQAAIELRRQGHEVTIYEKLDVYGGMMRVGIPEYRLPRDVIDFEYSYLAMLGIKTQFGVEIGKDISFDTLRSEHDAVILAHGAHVGSIIPLPGHDNDGVFSAVEYLKEISETRQFPRACKRVMVIGGGDVAMDCARSSWRIGASDVYQCSLESLESLPASQIEIDESLEEGVEFNAGWGPVAIEHENGKVTGITIKKVLSIFDEQGNFAPQYSEESKTISVDTVVFATGQIVADITDGALEQTRGGRYVVDKQTLASSLEDVFVAGDACGGNIVIEAMALGRKAAMSVERFLTARPLTEDREGHHHHHH”, the “soluble on expression in E. coli” value is recorded as “soluble”.

As to “MHIAIIGAAGMVGRKLTQRLVKDGSLGGKPVEKFTLIDVFQPEAPAGFSGAVDARAADLSAPGEAEKLVEARPDVIFHLAAIVSGEAELDFDKGYRINLDGTRYLFDAIRIANGKDGYKPRVVFTSSIAVFGAPLPYPIPDEFHTTPLTSYGTQKAICELLLSDYSRRGFFDGIGIRLPTICIRPGKPNAAASGFFSNILREPLVGQEAVLPVPESIRHWHASPRSAVGFLIHGAMIDVEKVGPRRNLSMPGLSATVGEQIEALRKVAGEKAVALIRREPNEMIMRMCEGWAPGFEAKRARELGFTAESSFEEIIQVHIEDELGGSLK”, the “soluble on expression in E. coli” value was “soluble”.

Turning to “SEEEHPVSHKKSKKKSKKHKEKDQIKKLDIETMEEKEEDLQREETAKLSNASPNPNEGVKEGCTASMEPSSALELPDYLIKYIAIVSYEQRQNYKDDFNAEYDEYRALHARMETVARRFIKLDAQRKRLSPGSKEYQNVHEEVLQEYQKIKQSSPNYHEEKYRCEYLHNKLAHIKRLIGEFDQQQAESWH”, the “soluble on expression in E. coli” value is listed as “soluble”.

On to “MGDTKVETISRLAQWRIENFGPCSFKKSDPFKVGIWNWHLSIERNRYLSVRLFPELSRVSKEQPPVAKFVLRVSNVGPNRRFYISPVYEKLLRTTDDCVWHVDSSFHGRFTIDVEFLDLKICPVNGGEASPVWPTDATMQSISTQTTLKCLSRMLEESILTDVIIHTADGTLSAHKAILSASSTVFKSMFHHDLMEKESSTIHIDDMSRESCMALLSYLYGNITQEEFWKHRLALLGAANKYDITDLKAACEESLMEDINSSNVLERLQEAWLYQLEKLKKGCLMYLFDFGKIYDVREEISSFFRQADRELMLEMFQEVLSVWKPV”, for which the “soluble on expression in E. coli” value was “soluble”.

Regarding “PHIDIKCFPRELDEQQKAALAADITDVIIRHLNSKDSSISIALQQIQPESWQAIWDAEIAPQMEALIKKPGYSMNA”, the “soluble on expression in E. coli” value is recorded as “soluble”.

With “MSLIKLRPHHIMCFQGYEGKGYSQDFIDNMDNIYRDLKEKDNLKIKIVFSTDDVCGSCPNKISDNNCGCNEKVMAIDNKVIRVLKLKQKIYTYNELVNKLRLNINEGVMKDICGQCVWYENSKCKTSILSLEGHHHHHH”, the “soluble on expression in E. coli” value is listed as “soluble”.

For the sequence “MGSDKIHHHHHHMTAPHTETDSTQQFLDSMPELKPGEKFQFACHPGVACFNACCSDLTMPLSPYDVLRLRQETGQDSEGFISTFARVETYPDTNFPILYMKMTDGPVRPCPFVSQAGCQVYPNRPAACRTYPLGRGTRVDAQGRLVEQYFIIAEQHCHGFAEEPVWTSEEWLQDQGLARYNYFGDRYTRLMGRAMETGLVLTQKQLTLCLLALYEADRFGAFISGVNLFARLNVSAQEQARILEDEEARLEFGFDWTELVLFGDNERLQVVNP”, the “soluble on expression in E. coli” value is recorded as “not soluble”.

“TEEDPSSGHGGVALESLSSFLAHSRRAGIYRLHLPDSVLSHFVRAALDYRERQVPFDFAFDSASDAELYCTELVAAALLRADSLLPIRPSISVAGRRVYSLDDLLLLPGTKCMALAN”: the “soluble on expression in E. coli” value is given as “not soluble”.

For “AKDNYGKLPLIQSRDSDRTGQKRVKFVDLDEAKDSDKEVLFRARVHNTRQQGATLAFLTLRQQASLIQGLVKANKEGTISKNMVKWAGSLNLESIVLVRGIVKKVDEPIKSATVQNLEIHITKIYTISETPEALPILLEDASRSEAEAEAAGLPVVNLDTRLDYRVIDLRTVTNQAIFRIQAGVCELFREYLATKKFTEVHTPKLLGAPSEGGSSVFEVTYFKGKAYLAQSPQFNKQQLIVADFERVYEIGPVFRAENSNTHRHMTEFTGLDMEMAFEEHYHEVLDTLSELFVFIFSELPKRFAHEIELVRKQYPVEEFKLPKDGKMVRLTYKEGIEMLRAAGKEIGDFEDLSTENEKFLGKLVRDKYDTDFYILDKFPLEIRPFYTMPDPANPKYSNSYDFFMRGEEILSGAQRIHDHALLQERMKAHGLSPEDPGLKDYCDGFSYGCPPHAGGGIGLERVVMFYLDLKNIRRASLFPRDPKRLRP”, the “soluble on expression in E. coli” value is given as “soluble”.

“SLEGQLEAGEPKEGTHPEDPCPGAGAAMEKTPAAAEVPREDGNAEEMPSLQQQITSLHQELGRQQSLWADIHRKLQSHMDALRKQNRELREELRGLQRQQWEAGKKPAASPHAGRESHTLALEPAFGKISPLSADEETTPKYAGRKSQSATLLGQRWSSNHLAPPKPMSLKTERINSGKTPPQEDREKSPPGRRQDRSPAPTGRPTPGAERREVSEDGKIMHPSSRSPQNSGGRKSPVQASQATTLQEQTAAARGADRSSSVLGSSEGGFLSRVQADEFASSSPDSAERQNLPVNPPSSLEIAQAMDTKMKKEEVQEEKRHPKGKADDCRRSGFPSEFPGALHAAPSRQDMGP”: the “soluble on expression in E. coli” value was “soluble”.

Regarding “MRYCQFEGCSNTTEKGAYCSEHARKSRKKKKPINVYHHDNKSFYRTKEWQDVADFVYEREGGCCQRCGRFVFGRQAHRHHVIPIKKNEMLKLDPNNIRLLCPKCHVIEENEADEKKVFPSYFKK”, the “soluble on expression in E. coli” value is listed as “not soluble”.

Take “MNDETPRCPYNSLYKPLNLIKSKPDGCFKHNGQCTYGKNLVESVDDGNSRTPYNSIYEPLSLNKPKPDGRSSNGKKPVDNEYVNLPVLSEEQKLADKLAAKLRKLEVKEPKSKKRGSKERKKKKSEPVESTYESLATIEGSTNYSGPVTTESLESNVKFHHASQTAYIGVYSSADAEAQVKNRGEFALYHLFEVGNGIDHLTATLPFGGLWIPNRSQTLLAQSTRSILQIVRIDSDETRGHLL”: the “soluble on expression in E. coli” value is recorded as “not soluble”.

Regarding “MSLAAHWEIAVKNSSRSAVDPFIVMDVMEAARRAEEAGRRIIHMEVGQPGTGAPRGAVEALAKSLETDALGYTVALGLPALRQRIARLYGEWYGVDLDPGRVVITPGSSGGFLLAFTALFDSGDRVGIGAPGYPSYRQILRALGLVPVDLPTAPENRLQPVPADFAGLDLAGLMVASPANPTGTMLDHAAMGALIEAAQAQGASFISDEIYHGIEYEAKAVTALELTDECYVINSFSKYFSMTGWRVGWMVVPEDQVRVVERIAQNMFICAPHASQVAALAALDCDAELQANLDVYKANRKLMLERLPKAGFTRIAPPDGAFYVYADVSDLTDDSRAFAAEILEKAGVAVTPGLDFDPERGAGTLRFSYARATADIEEGLDRLEAFMQARGEGHHHHHH”, the “soluble on expression in E. coli” value was “soluble”.

In the case of “QGWEKALYTLVTLYVTTRVIDAIHTRHMKLTAMIVTKKADEIKEAIYGKMVRGITTVPAKGAFTNEQKEMMIIVITRYELYDLEKIVKEVDPKAFTNIVQTTGIFGFFRKD”, the “soluble on expression in E. coli” value is “not soluble”.

Turning to “MHISFIIPAFNEEQLIEPCLRSITDAVAANRSYGYTSEIIVVDNNSTDATAQLAKQAGAQVVFEPVNHIARARTAGAGAARGDWLVFMDADCLLNAGLVGDIFELIRQGRHIGAGSTLYMPGQPWWAEMLLRIWTFLSVQLGWAAGALIVCNAAAFREVGGFDLTLYAAEEIDLSQKLKKYGRKRKLKFAILNAHPLETSSRKTQLYSGWEIVGQFLRLVLSPLGTLRNKKKLPMWYDGRRLEHHHHHH”, the “soluble on expression in E. coli” value was “soluble”.
